Assay results as given in article PMC10680189.

Assays:
[1] = target: Toll-like receptor 4 (TLR-4) of Caco-2 cells (human (endogenous in Caco-2)) (UniProt O00206)
[2] = target: Toll-like receptor 4 (TLR-4) of Caco-2 cells (human (endogenous in Caco-2)) (UniProt O00206); remark: listed apart in the source

UniProt O00206, sequence (O00206 24-839): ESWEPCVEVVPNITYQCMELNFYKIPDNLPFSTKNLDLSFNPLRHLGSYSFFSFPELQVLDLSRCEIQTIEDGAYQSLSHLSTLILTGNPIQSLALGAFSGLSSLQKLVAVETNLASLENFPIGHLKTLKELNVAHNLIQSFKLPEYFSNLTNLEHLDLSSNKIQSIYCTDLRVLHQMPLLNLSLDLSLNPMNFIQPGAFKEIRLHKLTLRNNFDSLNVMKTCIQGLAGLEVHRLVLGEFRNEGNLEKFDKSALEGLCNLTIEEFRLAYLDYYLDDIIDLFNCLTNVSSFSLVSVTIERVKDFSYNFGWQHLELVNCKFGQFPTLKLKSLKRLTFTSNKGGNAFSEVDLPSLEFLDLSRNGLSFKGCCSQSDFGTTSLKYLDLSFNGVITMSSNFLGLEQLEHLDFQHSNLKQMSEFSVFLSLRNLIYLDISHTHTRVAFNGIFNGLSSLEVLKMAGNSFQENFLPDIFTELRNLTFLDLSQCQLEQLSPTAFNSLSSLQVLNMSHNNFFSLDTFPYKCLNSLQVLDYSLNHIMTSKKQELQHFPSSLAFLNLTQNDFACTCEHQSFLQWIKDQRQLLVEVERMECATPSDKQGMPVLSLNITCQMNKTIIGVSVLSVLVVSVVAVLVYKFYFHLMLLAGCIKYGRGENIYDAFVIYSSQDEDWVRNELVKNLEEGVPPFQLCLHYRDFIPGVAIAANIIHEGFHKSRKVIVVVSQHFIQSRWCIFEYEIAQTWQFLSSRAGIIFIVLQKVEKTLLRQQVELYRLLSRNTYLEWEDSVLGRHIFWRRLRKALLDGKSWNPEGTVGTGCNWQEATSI

With “recombinant Trichinella spiralis galectin with GST tag (GST-rTsgal) (natural protein)” the TLR-4 protein expression level (Western blot) in Caco-2 cells incubated with rTsgal (50 µg/mL) for 48 h, increase against the PBS group [1] was 47.7%, the TLR-4 transcription level (qPCR) in Caco-2 cells incubated with rTsgal (50 µg/mL) for 48 h, increase against the PBS group [1] was 18.4% and the NF-κB p65 transcription level (qPCR) in Caco-2 cells treated with rTsgal for 48 h, increase against the PBS group [2] was 60.2%.
